Measured values published in patent publication US20170121395A1 (SINGH BIOTECHNOLOGY, published 2017).
Read-outs that look alike come from different tables or passages of the source.

Experiments:
[1] = target: T1, recombinant HIV-1 reverse transcriptase protein (HIV-1, UniProt P03367 600-858)
T1 construct: also called rHIV-1; HIV-1 RT

[2] = target: T1, recombinant HIV-1 reverse transcriptase …; remark: listed apart in the source
[3] = target: T1, recombinant HIV-1 reverse transcriptase …; remark: listed apart in the source
[4] = target: T1, recombinant HIV-1 reverse transcriptase …; experiment: SPR (Biacore 3000), sdAb immobilized (1200 RU), full kinetics, analyte 0-200 nM
[5] = target: T1, recombinant HIV-1 reverse transcriptase …; remark: listed apart in the source
[6] = target: T1, recombinant HIV-1 reverse transcriptase …; experiment: SPR (Biacore 3000), sdAb immobilized, analyte 100 nM
[7] = target: T1, recombinant HIV-1 reverse transcriptase …; remark: listed apart in the source
[8] = target: T1, recombinant HIV-1 reverse transcriptase …; experiment: ELISA, plate coated with HIV-1 RT, sdAb at 1 µg/mL, checkerboard of coating, 2° antibody and HRP
[9] = target: T1, recombinant HIV-1 reverse transcriptase …; remark: listed apart in the source

B1: HIV1-9 anti-HIV-1 RT sdAb (VHH)
VHH: EVQLVESGGGSVQAGGSLRLSCAASVYSYNTNCMGWFRQAPGKEREGVAVIYAAGGLTYYADSVKGRFTISQENGKNTVYLTMNRLKPEDTAMYYCAAKRWCSSWNRGEEYNYWGQGTQVTVSS
notes: also called HIV1-9 VHH; HIV1-9 anti-RT sdAb
With B1 the EC50 [1] was 0.019 µg/mL, the EC50 [2] was 0.0161 µg/mL and the EC50 [3] was 0.0227 µg/mL. It also gave a Kd [4] of 3.85 nM, a koff [4] of 0.000731 s⁻¹ and a kon [4] of 190000 M⁻¹ s⁻¹. It also gave an EC50 [5] of 0.0133 µg/mL, a Kd [6] of 4.25 nM and a koff [6] of 0.000379 s⁻¹. The kon [6] was 89100 M⁻¹ s⁻¹, the EC50 [7] was 0.0191 µg/mL and the signal-to-noise ratio [8] was > 20. For the same binder, the EC50 [9] was 0.015 µg/mL.
